# Target: Ulp1^403-621-C580S, on CNBr-activated resin (S. cerevisiae) (UniProt Q02724)
# Test: pull-down; Ulp1^403-621-C580S on CNBr-activated resin incubated with yeast whole cell extract, 2 h at 4 °C, PBSN buffer; anti-Smt3 Western blot
# Chain of UniProt Q02724 (Q02724 403-621 C580S): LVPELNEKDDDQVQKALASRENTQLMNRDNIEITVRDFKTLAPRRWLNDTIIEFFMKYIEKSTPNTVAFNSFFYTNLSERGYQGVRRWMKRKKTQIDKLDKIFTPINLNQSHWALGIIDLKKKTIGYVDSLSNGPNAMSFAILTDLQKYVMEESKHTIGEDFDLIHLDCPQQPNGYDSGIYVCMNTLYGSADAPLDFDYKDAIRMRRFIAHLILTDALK
substance,measurement,value
"Smt3 (yeast SUMO), as endogenous SUMO conjugates in yeast cell extract (from UniProt Q12306 1-101) (natural protein)",percent of SUMO conjugates recovered on the resin,50%

# Source: article PMC6892545
